Patent US20100092467A1 (US Dept. of Health and Human Services, published 2010)
Ends that are not written are not given here. * marks the point of attachment. Biotin = O=C1N[C@H]2[C@H](CS[C@H]2CCCCC(=O)*)N1

What was measured:
[1] = molecular target: CD36, murine, endogenous on cells (mouse) (UniProt Q08857); assay: cell-based or functional assay
[2] = molecular target: CD47, human, endogenous on cells (human, UniProt Q08722 19-323); assay: cell-based or functional assay

CD36, murine, endogenous on cells (mouse), sequence (Q08857 whole entry): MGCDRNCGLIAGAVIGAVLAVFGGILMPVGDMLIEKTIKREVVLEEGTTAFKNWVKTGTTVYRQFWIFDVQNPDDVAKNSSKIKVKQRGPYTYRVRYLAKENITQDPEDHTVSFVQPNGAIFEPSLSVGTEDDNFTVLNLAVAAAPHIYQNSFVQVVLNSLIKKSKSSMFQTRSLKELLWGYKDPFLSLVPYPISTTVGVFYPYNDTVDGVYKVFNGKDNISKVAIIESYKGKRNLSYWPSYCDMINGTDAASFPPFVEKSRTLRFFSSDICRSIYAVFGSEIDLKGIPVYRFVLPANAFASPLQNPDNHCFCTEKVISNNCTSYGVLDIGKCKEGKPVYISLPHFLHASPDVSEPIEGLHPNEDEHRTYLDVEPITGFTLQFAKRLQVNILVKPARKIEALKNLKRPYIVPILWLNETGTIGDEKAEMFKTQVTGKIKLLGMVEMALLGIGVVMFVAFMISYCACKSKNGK

| Molecule | cGMP signaling IC50** [2] | also measured |
| --- | --- | --- |
| Thrombospondin-1 (TSP1), prepared from human platelets (from UniProt P07996 19-1170) (ligand) | – | NO-stimulated adhesion of MASMC on type I collagen [1]: 22 nM |
| E3CaG1, recombinant C-terminal regions of TSP1 (from UniProt P07996 646-1170) (ligand) | – | NO-driven HASMC adhesion to collagen [2]: > 0.4 nM |
| IGWKDYTAYR [peptide 37298 (IGWKDYTAYR)] | ~100 nM | – |
| IGWADFTAYR [peptide 37413] | > 10000 nM | – |
| Biotin-IGWKDFTAYR [peptide C6d (biotin-IGWKDFTAYR)] | ~100 nM | – |
| IGWKNFTAYR [peptide 37297 (IGWKNFTAYR)] | > 10000 nM | – |
| Ac-WKDFTAYR [peptide 37300 (Ac-WKDFTAYR)] | ~1000 nM | – |
| IGWHDFTAYR [peptide 37414 (IGWHDFTAYR)] | > 10000 nM | – |
| IGWKDFTAAR [peptide 37555 (IGWKDFTAAR)] | ~10000 nM | – |
| IGWKEFTAYR [peptide 37415 (IGWKEFTAYR)] | 1000 nM | – |
| AGWKDFTAYR [peptide 37416 (AGWKDFTAYR)] | ~1000 nM | – |
| IGWKDFAAYR [peptide 37299] | > 10000 nM | – |
| HIGWKDFTAYRWRLS [peptide C6b (HIGWKDFTAYRWRLS)] | ~100 nM | – |
| IGYKDFTAYR [peptide 37417 (IGYKDFTAYR)] | ~100 nM | – |
